This assay addresses T1, Cdc11(E294C)-capped, otherwise Cys-less septin hetero-octamer (Cdc11-Cdc12-Cdc3-Cdc10-Cdc10-Cdc3-Cdc12-Cdc11) (S. cerevisiae, UniProt P32458 1-415; P32468 1-407; P32457 1-520; P25342 1-322, C43F | C137A | C138A | E294C | C40A | C278S | C124V | C253V | C279V | C266S, Alexa Fluor 555 maleimide (donor) or Alexa Fluor 647 maleimide (acceptor) on C294 (E294C); 0.7-0.8 dye molecules per subunit).
T1 construct: intact CTE (residues 303-415) restored; Cdc12, S. cerevisiae mitotic septin, Cys-less variant; Cdc3, S. cerevisiae mitotic septin, Cys-less variant; Cdc10, S. cerevisiae mitotic septin, Cys-less variant; The same preparation was labelled separately with donor (AF555) or acceptor (AF647); both are written as this one molecule; also called Cdc11^AF555; Cdc11^AF647; source: E. coli NiCo21 (DE3), …
Put plainly: FRET or BRET; 25 nM donor (AF555)-labelled octamers titrated with acceptor (AF647)-labelled octamers, serial dilutions from 100 nM; 45 mM KCl, 50 mM Tris-HCl pH 8.0; room temperature, 1 h equilibration; triplicate; PCA and curve fit; apparent Kd of end-to-end association of rods. Conditions: both partners purified. (In general: BRET reads energy transfer from a luciferase to a nearby fluorophore.)

B1: Shs1(E344C ΔCTE)-capped, otherwise Cys-less septin hetero-octamer (complex, S. cerevisiae)
chain 1: MSTASTPPINLFRRKKEHKRGITYTMLLVGPAGTGKTAFANNLLETKIFPHKYQYGKSNASISSNPEVKVIAPTKVVSFNSKNGIPSYVSEFDPMRANLEPGITITSTSLELGGNKDQGKPEMNEDDTVFFNLIMTHGIGENLDDSLSSEEVMSYLEQQFDIVLAEETRIKRNPRFEDTRVHVALYFIEPTGHGLREVDVELMKSISKYTNVLPIITRADSFTKEELTQFRKNIMFDVERYNVPIYKFEVDPEDDDLESMEENQALASLQPFAIITSDTRDSEGRYVREYPWGIISIDDDKISDLKVLKNVLFGSHLQEFKDTTQNLLYENYRSEKLSSVANACEIGP
chain 2: MSAATATAAPVPPPVGISNLPNQRYKIVNEEGGTFTVMLAGESGLGKTTFINTLFQTVLKRADGQQHRQEPIRKTVEIDITRALLEEKHFELRVNVIDTPGFGDNVNNNKAWQPLVDFIDDQHDSYMRQEQQPYRTKKFDLRVHAVLYFIRPTGHGLKPIDIETMKRLSTRANLIPVIAKADTLTAQELQQFKSRIRQVIEAQEIRIFTPPLDADSKEDAKSGSNPDSAAVEHARQLIEAMPFAIVGSEKKFDNGQGTQVVARKYPWGLVEIENDSHSDFRKLRALLLRTYLLDLISTTQEMHYETYRRLRLEGHENTGEGNEDFTLPAIAPARKLSHNPRYKEEENALKKYFTDQVKAEEQRFRQWEQNIVNERIRLNGDLEEIQGKVKKLEEQVKSLQVKKSHLK
chain 3: MSLKEEQVSIKQDPEQEERQHDQFNDVQIKQESQDHDGVDSQYTNGTQNDDSERFEAAESDVKVEPGLGMGITSSQSEKGQVLPDQPEIKFIRRQINGYVGFANLPKQWHRRSIKNGFSFNLLVVGPDGIGKTTLMKTLFNNDDIEANLVKDYEEELANDQEEEEGQGEGHENQSQEQRHKVKIKSYESVIEENGVKLNLNVIDTEGFGDFLNNDQKSWDPIIKEIDSRFDQYLDAENKINRHSINDKRIHAVLYFIEPTGHYLKPLDLKFMQSVYEKVNLIPVIAKSDILTDEEILSFKKTIMNQLIQSNIELFKPPIYSNDDAENSHLSERLFSSLPYAVIGSNDIVENYSGNQVRGRSYPWGVIEVDNDNHSDFNLLKNLLIKQFMEELKERTSKILYENYRSSKLAKLGIKQDNSVFKEFDPISKQQEEKTLHEAKLAKLEIEMKTVFQQKVSEKEKKLQKSETELFARHKEMKEKLTKQLKALEDKKKQLELSINSASPNVNHSPVPTKKKGFLR
chain 4: MDPLSSVQPASYVGFDTITNQIEHRLLKKGFQFNIMVVGQSGLGKSTLINTLFASHLIDSATGDDISALPVTKTTEMKISTHTLVEDRVRLNINVIDTPGFGDFIDNSKAWEPIVKYIKEQHSQYLRKELTAQRERFITDTRVHAILYFLQPNGKELSRLDVEALKRLTEIANVIPVIGKSDTLTLDERTEFRELIQNEFEKYNFKIYPYDSEELTDEELELNRSVRSIIPFAVVGSENEIEINGETFRGRKTRWSAINVEDINQSDFVYLREFLIRTHLQDLIETTSYIHYEGFRARQLIALKENANSRSSAHMSSNAIQR
modifications: Alexa Fluor 555 maleimide (donor) on C344 (E344C)
notes: Cdc12, S. cerevisiae mitotic septin, Cys-less variant; Cdc3, S. cerevisiae mitotic septin, Cys-less variant; Cdc10, S. cerevisiae mitotic septin, Cys-less variant; also called Shs1 ΔCTE^AF555; source: E. coli NiCo21 (DE3), subunits co-expressed, purified (IMAC, chitin-agarose flow-through, SEC), maleimide dye-labelled; not shown: His6, N-terminal, kept; copies: 2 + 2 + 2 + 2
Regarding B1, the Kd was found to be 30.4 nM.

The values are drawn from PMC4653696 (The Journal of Biological Chemistry, 2015).
